Assays:
Experiment in all cases: co-IP; anti-V5 IP of Scc4-3V5 or scc4-RID-3V5 from yeast extracts, cells at midlog phase in YPD at 23°, IPH50 buffer (50 mM Tris pH 8.0, 50 mM NaCl, 5 mM EDTA, 0.5% NP-40), 4°; blot with anti-Myc (Scc2) or anti-HA (Smc1)
[1] = biological target: scc4-L490ins-3V5 (S. cerevisiae) (UniProt P40090)
[2] = biological target: scc4-L305ins-3V5 (S. cerevisiae) (UniProt P40090)
[3] = biological target: scc4-V485ins-3V5 (S. cerevisiae) (UniProt P40090)
[4] = biological target: scc4-S505ins-3V5 (S. cerevisiae) (UniProt P40090)

Measured: co-precipitation, percent of the wild-type level

B1: Scc2-12Myc (natural protein)
chain: MSYPGKDKNIPGRIIEALEDLPLSYLVPKDGLAALVNAPMRVSLPFDKTIFTSADDGRDVNINVLGTANSTTSSIKNEAEKERLVFKRPSNFTSSANSVDYVPTNFLEGLSPLAQSVLSTHKGLNDSINIEKKSEIVSRPEAKHKLESVTSNAGNLSFNDNSSNKKTKTSTGVTMTQANLAEQYLNDLKNILDIVGFDQNSAEIGNIEYWLQLPNKKFVLTTNCLTKLQMTIKNITDNPQLSNSIEITWLLRLLDVMVCNIKFSKSSLKMGLDDSMLRYIALLSTIVLFNIFLLGKNDSNLHRESYIMEPVNFLSDLIESLKILTIEYGSLKIEFDTFQEALELLPKYIRNGPFLDDNVTAKLVYIFSDLLMNNDIEATTNIQFQSFWDNVKRISSDILVSLFGSFDQQRGFIIEELLSHIEKLPTKRIQKKLRKVGNQNIYITDFTFTLMSMLENINCYSFCNQMKDIAPENIDLLKNEYKKQEEFLFNIVEHINDTILERFFKNPSALRYVIDNFVQDLLLLISSPQWPVTEKILSSLLKRLLSVYSPSMQVSANIETICLQLIGNIGSTIFDIKCSTRDHEDNNLIKMINYPETLPHFFKSFEECIAYNETIKCRRSATRFLWNLRLGTILILEEYTKDAKEQIITVDNELKKILEQIKDGGLGPELENREADFSTIKLDYFSILHAFELLNLYDPYLKLILSLLAKDKIKLRSTAIKCLSMLASKDKVILSNPMVKETIHRRLNDSSASVKDAILDLVSINSSYFEFYQQINNNYNDDSIMVRKHVLRINEKMYDETNDIVTKVYVIARILMKIEDEEDNIIDMARLILLNRWILKVHEVLDQPEKLKEISSSVLLVMSRVAIMNEKCSQLFDLFLNFYLLNKEAHSKEAYDKITHVLTILTDFLVQKIVELNSDDTNEKNSIVDKQNFLNLLAKFADSTVSFLTKDHITALYPYMVSDEKSDFHYYILQVFRCTFEKLANFKQKFLYDLETTLLSRLPKMNVREIDEAMPLIWSVATHRHDTARVAKACSSCLSHLHPYINKANNEEAAIVVDGKLQRLIYLSTGFARFCFPKPSNDKIAFLQEGETLYEHITKCLLVLSKDKITHVIRRVAVKNLTKLCGNHPKLFNSRHVLHLLDKEFQSDQLDIKLVILESLYDLFLLEERKSVRNTGVNSTLSSNSILKKKLLKTNRVEFANDGVCSALATRFLDNILQLCLLRDLKNSLVAIRLLKLILKFGYTNPSHSIPTVIALFASTSQYIRHVAYELLEDLFEKYETLVFSSLSRGVTKAIHYSIHTDEKYYYKHDHFLSLLEKLCGTGKKNGPKFFKVLKRIMQSYLDDITDLTSTNSSVQKSIFVLCTNISNITFVSQYDLVSLLKTIDLTTDRLKEVIMDEIGDNVSSLSVSEEKLSGIILIQLSLQDLGTYLLHLYGLRDDVLLLDIVEESELKNKQLPAKKPDISKFSAQLENIEQYSSNGKLLTYFRKHVKDT
50%: all assays above

— PMC4978918
